Experimental findings from article PMC4863159 are described below.

“And” between values parts separate entries of the source, which are not always exact repeats. Identical values can stand only once.

Assay [1] concerns the target C-CRD-RHCC-C-CRD fusion protein (not stated | Staphylothermus marinus). In words: cross-linking; spontaneous disulfide cross-linking of CRD-RHCC fusion proteins over time; loss of the dimer band into polymers on anti-His Western blot, samples every 30 minutes for 4 hours, single exponential decay fit (y = e^-x/tau). In general terms: In western blotting, separated proteins are transferred to a membrane and probed.

For assay [2] the target is unchanged. Kind of assay: cross-linking; disulfide-linked oligomers of purified, oxidized CRD-RHCC fusion proteins in non-reducing SDS-PAGE; samples heat-denatured; control: reduced and treated with 60 mM iodoacetamide (IAA).
The target of assay [3] is right-handed coiled-coil domain (RHCC) from Staphylothermus marinus, lacking CRDs (Staphylothermus marinus). In words: SDS-PAGE at low SDS concentration; purified RHCC on SDS-PAGE with a low SDS concentration to preserve the tetrameric coiled-coil; monomer lane beside it.
The target in assay [4] is N-CRD-RHCC-N-CRD fusion protein (not stated | Staphylothermus marinus). Kind of assay: cross-linking; spontaneous disulfide cross-linking of CRD-RHCC fusion proteins over time; loss of the dimer band into polymers on anti-His Western blot, samples every 30 minutes for 4 hours, single exponential decay fit (y = e^-x/tau).
For assay [5] the target is unchanged. Kind of assay: cross-linking; disulfide-linked oligomers of purified, oxidized CRD-RHCC fusion proteins in non-reducing SDS-PAGE; samples heat-denatured; control: reduced and treated with 60 mM iodoacetamide (IAA).
Assay [6] concerns the target C9A/C18A C-CRD mutant (CRD-RHCC fusion protein). In words: western blot densitometry of the dimer band over time (spontaneous disulfide cross-linking). Conditions: no reducing agent added, read off a plot.

The term stoichiometry N denotes the number of molecules, sites or subunits per partner or assembly. C-CRD-RHCC-C-CRD fusion protein showed a τ (decay of the dimer band into polymers) in assay [1] of 88 min. For the same substance, in assay [2], the stoichiometry N was 3 and 2.

As for “right-handed coiled-coil domain (RHCC) from Staphylothermus marinus, lacking CRDs (domain or fragment)”, the stoichiometry N in assay [3] came out at 4.

N-CRD-RHCC-N-CRD fusion protein: the τ (decay of the dimer band into polymers) in assay [4] worked out at 340 min; in assay [1], 251 min. This substance returned a stoichiometry N in assay [5] of 2.

Consider “C-CRD-RHCC-C-CRD fusion protein C9A; C18A”, for which the other: dimer loss (normalized) in assay [6] (t = 30 min, parent: est. 0.82) came out at 1; in assay [6] (t = 60 min, parent: est. 0.38), 0.91; in assay [6] (t = 90 min, parent: est. 0.29), 0.92; in assay [6] (t = 120 min, parent: est. 0.23) it was 0.98; in assay [6] (t = 180 min, parent: est. 0.23), 1; in assay [6] (t = 240 min, parent: est. 0.22), 1.
